The target in one data set is T1, Put3 (UniProt P25502 1-979).
T1 sequence: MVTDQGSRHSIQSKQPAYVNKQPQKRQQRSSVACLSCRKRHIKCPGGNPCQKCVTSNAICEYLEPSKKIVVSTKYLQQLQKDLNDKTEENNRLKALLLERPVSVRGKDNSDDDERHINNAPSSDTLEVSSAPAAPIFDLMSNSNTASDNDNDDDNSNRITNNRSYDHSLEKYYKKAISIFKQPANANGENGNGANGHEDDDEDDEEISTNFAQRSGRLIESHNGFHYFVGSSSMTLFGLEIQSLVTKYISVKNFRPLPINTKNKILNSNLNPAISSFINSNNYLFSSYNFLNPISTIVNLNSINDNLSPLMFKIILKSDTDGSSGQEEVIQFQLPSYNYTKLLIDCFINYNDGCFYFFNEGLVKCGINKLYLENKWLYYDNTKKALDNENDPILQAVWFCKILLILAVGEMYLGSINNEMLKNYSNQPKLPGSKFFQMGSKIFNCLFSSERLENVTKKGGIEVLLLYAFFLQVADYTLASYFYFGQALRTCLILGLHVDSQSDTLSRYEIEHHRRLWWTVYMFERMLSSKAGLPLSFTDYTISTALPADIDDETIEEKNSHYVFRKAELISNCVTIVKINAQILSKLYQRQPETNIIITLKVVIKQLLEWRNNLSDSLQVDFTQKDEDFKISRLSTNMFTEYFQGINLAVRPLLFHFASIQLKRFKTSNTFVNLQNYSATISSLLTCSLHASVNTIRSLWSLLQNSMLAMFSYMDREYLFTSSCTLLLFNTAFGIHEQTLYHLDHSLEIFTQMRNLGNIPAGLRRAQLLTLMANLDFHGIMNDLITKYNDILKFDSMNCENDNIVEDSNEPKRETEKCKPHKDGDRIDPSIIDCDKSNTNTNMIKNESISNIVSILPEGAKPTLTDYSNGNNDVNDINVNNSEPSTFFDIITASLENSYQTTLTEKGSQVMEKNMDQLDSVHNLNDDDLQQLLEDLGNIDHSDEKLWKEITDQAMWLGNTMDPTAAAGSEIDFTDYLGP
In words: EMSA. For orientation: A gel shift assay detects complexes by their altered migration in electrophoresis.

Another data set concerns the target Put3;Myo3 (Saccharomyces cerevisiae?;Saccharomyces …, UniProt P25502;P36006 1-979;1-1272, |). Put plainly: EMSA.

Consider two molecules from paper PMC7108666.

B1: GRSI oligonucleotide (dsDNA)
DNA 1: GTGTTCCGGGGTTGGATGCGGAA
DNA 2: TTCCGCATCCAACCCCGGAACAC
In the case of B1, the binding result with Put3 and with Put3;Myo3 was “binds” in each case.

B2: UAS oligonucleotide (dsDNA)
DNA 1: TCTCGGGAAGCCAACTCCGAAGC
DNA 2: GCTTCGGAGTTGGCTTCCCGAGA
B2: in the data set with Put3, the binding result is on record as “binds”.
